Test results taken from PMC10653861, “Three small partner proteins facilitate the type VII-dependent secretion of an antibacterial nuclease” (mBio, 2023).

Biological target: the molecule itself
Experiment: cross-linking; purified complexes from the major SEC peaks, 0.5 mg/mL in 50 mM HEPES pH 7.5, 150 mM NaCl, 0.1% glutaraldehyde for 30 min at room temperature, quenched with tris; SEC and SDS-PAGE with Coomassie staining

B1: EsaDEG trimer (complex)
chain 1: MTKDIEYLTADYDNEKSSIQSVIDAIEGQDFLDVDTTMDDAVSDVSSLDEDGAISLTSSVVGPQGSKLMGYYQNELYDYASQLDSKMKEIIDTPFIEDIDKAFKGITNVKLENILIKNGGGHGRDTYGASGKIAKGDAKKSDSDVYSIDEILKSDQEFVKVIDQHYKEMKKEDKKLSKSDFEKMMTQGASCDYMTVAEAEELEEQKKKEEAIEIAALAGMVVLSCINPVAGAVAIGAYSAYSAANAATGKNIVTGRKLSKEERIMEGLSLIPLPGMGFLKGAGKSLMKLGFKGGEKFAVKTGLQKTMQQAVSRISPKMGMMKNSVLNQSRNFAQNTHVGQMLSNMRGQATHTVQQSRNWIGQQAQNVKRIVNNGLDKEIAHPFKQQLAPAGMGGIKFAETTTLRNMGQNIKRAVTPQNHVTHGPKDSMVRSEGKHSISSHEMNSSKYVESPNYTKVEFGEHYARLRPKKLKANIEYTTPTGHIYRTDHKGRIKEVYVDNLSLKDGDRNSHAQRTVGGEDRLPDDDGGALIARMFGGSKDIDNLVAQSKFINRPFKEKGHWYNLEKEWQEFLNSGKEVKNIKMEVKYSGNSQRPTIFKVEYEINGERNIRRILNK
chain 2: MKDVKRIDYFSYEELTILGGSKLPLVNFELFDPSNFEEAKAALIEKELVTENDKLTDAGFKVATLVREYISAIVNIRINDMYFAPFSYEKDEYILLSRFKNNGFQIRIINKDIAWWSIVQSYPLLMRQEKSNDWDFKQIDDETLENLNNESIDTIGRVLEIEIYNHQGDPQQSLYNIYEQNDLLFIRYPLKDKVLNVHIGVINTFIRELFGFDTDENHINKAEE
chain 3: MTFEEKLSKIYNEIANEISSMIPVEWEKVYTMAYIDDGGGEVFFNYTKPGSDDLNYYTNIPKEYNISVQVFDDLWMDLYDLFEELRDLFKEEDLEPWTSCEFDFTREGELKVSFDYIDWINSEFGQIGRQNYYKYRKFGILPETEYEINKVKEIEQYIKELEE
notes: EsaD nuclease toxin of Staphylococcus aureus with H528A, as m1; EsaE chaperone of Staphylococcus aureus, as m5; EsaG immunity protein of Staphylococcus aureus, as m6; also called EsaDEG complex; not shown: His6, C-terminal, kept; copies: + +
binding result: binds
